The source of these data is publication doi:10.1101/2025.10.10.681541, “Visualizing the mechanism of quinol oxidation and inhibition of a bd-type oxidase using cryo-EM” (bioRxiv, 2025).

Series [1] has as its target T1, E. coli cytochrome bd-I subunit CydA (E. coli, UniProt P0ABJ9 1-522).
T1 construct: CydA, subunit of E. coli cytochrome bd-I (Ecbd); harbours hemes b558, b595 and d and the Q-loop; Co-expressed and co-purified with CydB, CydX and CydH; never isolated on its own
T1 sequence: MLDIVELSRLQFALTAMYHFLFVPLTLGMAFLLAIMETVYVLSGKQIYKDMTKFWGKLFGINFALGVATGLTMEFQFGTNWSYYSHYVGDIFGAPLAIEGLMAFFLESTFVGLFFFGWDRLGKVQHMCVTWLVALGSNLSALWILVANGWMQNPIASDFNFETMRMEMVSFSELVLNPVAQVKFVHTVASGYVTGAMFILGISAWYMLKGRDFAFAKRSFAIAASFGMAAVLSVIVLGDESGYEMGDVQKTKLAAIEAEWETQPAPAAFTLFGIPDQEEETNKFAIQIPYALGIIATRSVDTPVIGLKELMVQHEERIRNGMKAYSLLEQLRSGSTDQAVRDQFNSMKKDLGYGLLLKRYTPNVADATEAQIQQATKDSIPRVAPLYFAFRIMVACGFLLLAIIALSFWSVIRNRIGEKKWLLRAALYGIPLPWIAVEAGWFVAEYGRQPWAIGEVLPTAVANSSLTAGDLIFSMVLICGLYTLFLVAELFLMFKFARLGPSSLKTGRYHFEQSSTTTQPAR
The series is described as follows: cryo-EM structure; purified Ecbd in LMNG micelles (unbound, Aurachin D bound) or in MSP1D1 PC nanodiscs doped with 5% menaquinone-9; monomeric and dimeric particles on the same grids. Conditions: both partners purified.

Series [2] deals with the molecule itself. Described as above.

B1: E. coli cytochrome bd-I subunit CydX (natural protein)
chain: MWYFAWILGTLLACSFGVITALALEHVESGKAGQEDI
notes: CydX, single-helix subunit of E. coli cytochrome bd-I (Ecbd)
On to B1, for which the binding result in series [1] and in series [2] was “binds” each time.
